{"source": "patent US20210155689A1", "about": "(SHANGHAI PHARMAEXPLORER, published 2021)", "key": {"[1]": {"target": "LAG-3-hFc protein (human LAG-3 extracellular region with hFc tag) (human) (UniProt P18627)", "assay": "ELISA, inhibition of LSECtin-His binding to coated LAG-3-hFc, antibody 1.600 nM, replicate 1"}, "[2]": {"target": "LAG-3-hFc protein (human LAG-3 extracellular region with hFc tag) (human) (UniProt P18627)", "assay": "ELISA, inhibition of LSECtin-His binding to coated LAG-3-hFc, antibody 0.320 nM, replicate 1"}, "[3]": {"target": "human LAG-3 on cells (HEK293-hLAG-3 stable cell line) (human) (UniProt P18627)", "assay": "cell-based or functional assay"}, "[4]": {"target": "human LAG-3 on cells (HEK293-hLAG-3 stable cell line) (human) (UniProt P18627)", "assay": "FACS, HEK293-hLAG-3, antibody 0.064 nM"}, "[5]": {"target": "human LAG-3 on cells (HEK293-hLAG-3 stable cell line) (human) (UniProt P18627)", "assay": "FACS, HEK293-hLAG-3, antibody 0.000 nM"}, "[6]": {"target": "human LAG-3 on cells (HEK293-hLAG-3 stable cell line) (human) (UniProt P18627)", "assay": "FACS, HEK293-hLAG-3, antibody 0.013 nM"}, "[7]": {"target": "LAG-3-hFc protein (human LAG-3 extracellular region with hFc tag) (human) (UniProt P18627)", "assay": "FACS, inhibition of LAG-3-hFc binding to MHC II on Raji cells, antibody 0.823 nM"}, "[8]": {"target": "LAG-3-hFc protein (human LAG-3 extracellular region with hFc tag) (human) (UniProt P18627)", "assay": "ELISA, inhibition of LSECtin-His binding to coated LAG-3-hFc, antibody 0.320 nM, replicate 2"}, "[9]": {"target": "LAG-3-hFc protein (human LAG-3 extracellular region with hFc tag) (human) (UniProt P18627)", "assay": "FACS, inhibition of LAG-3-hFc binding to MHC II on Raji cells, antibody 22.222 nM"}, "[10]": {"target": "T1, human LAG-3 on cells (HEK293-hLAG-3 stable cell line) (human, UniProt P18627 23-525)", "T1 sequence": "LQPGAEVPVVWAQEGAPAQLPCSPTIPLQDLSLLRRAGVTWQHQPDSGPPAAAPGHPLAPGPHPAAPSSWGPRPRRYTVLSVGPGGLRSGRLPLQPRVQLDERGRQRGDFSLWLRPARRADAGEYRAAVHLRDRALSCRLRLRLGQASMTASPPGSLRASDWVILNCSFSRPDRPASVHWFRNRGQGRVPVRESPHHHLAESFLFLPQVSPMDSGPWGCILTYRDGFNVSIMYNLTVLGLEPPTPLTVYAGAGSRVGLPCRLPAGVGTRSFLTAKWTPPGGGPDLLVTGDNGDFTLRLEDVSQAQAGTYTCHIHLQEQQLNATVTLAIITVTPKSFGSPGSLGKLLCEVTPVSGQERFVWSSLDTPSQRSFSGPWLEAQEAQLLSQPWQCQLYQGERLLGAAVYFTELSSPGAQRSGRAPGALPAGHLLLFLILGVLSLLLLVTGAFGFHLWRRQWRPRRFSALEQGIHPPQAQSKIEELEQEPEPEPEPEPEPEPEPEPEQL", "assay": "FACS, HEK293-hLAG-3, antibody 0.064 nM", "description": "A. The binding of antibodies to LAG-3 expressing cells was detected by Flow cytometry (FACS), wherein the method was according to that of Example 5."}}, "data": [{"molecule": "hIgG control (antibody)", "values": [{"measurement": "Inhibition rate (%)", "setting": "[1]", "result": -21.6, "unit": "%"}, {"measurement": "Inhibition rate (%)", "setting": "[2]", "result": -7.9, "unit": "%"}, {"measurement": "IL-2 production, SEB-dependent PBMC stimulation test, 0.0032 ug/ml, N = 1", "setting": "[3]", "result": 1620, "unit": "pg/mL"}, {"measurement": "IL-2 production, SEB-dependent PBMC stimulation test, 0.0032 ug/ml, N = 2", "setting": "[3]", "result": 1590, "unit": "pg/mL"}, {"measurement": "IL-2 production, SEB-dependent PBMC stimulation test, 0.016 ug/ml, N = 1", "setting": "[3]", "result": 1220, "unit": "pg/mL"}, {"measurement": "IL-2 production, SEB-dependent PBMC stimulation test, 0.016 ug/ml, N = 2", "setting": "[3]", "result": 1660, "unit": "pg/mL"}, {"measurement": "IL-2 production, SEB-dependent PBMC stimulation test, 0.08 ug/ml, N = 1", "setting": "[3]", "result": 1020, "unit": "pg/mL"}, {"measurement": "IL-2 production, SEB-dependent PBMC stimulation test, 0.08 ug/ml, N = 2", "setting": "[3]", "result": 1650, "unit": "pg/mL"}, {"measurement": "IL-2 production, SEB-dependent PBMC stimulation test, 0.4 ug/ml, N = 1", "setting": "[3]", "result": 1060, "unit": "pg/mL"}, {"measurement": "IL-2 production, SEB-dependent PBMC stimulation test, 0.4 ug/ml, N = 2", "setting": "[3]", "result": 1680, "unit": "pg/mL"}, {"measurement": "IL-2 production, SEB-dependent PBMC stimulation test, 2 ug/ml, N = 1", "setting": "[3]", "result": 1130, "unit": "pg/mL"}, {"measurement": "IL-2 production, SEB-dependent PBMC stimulation test, 2 ug/ml, N = 2", "setting": "[3]", "result": 1630, "unit": "pg/mL"}, {"measurement": "IL-2 production, SEB-dependent PBMC stimulation test, 10 ug/ml, N = 1", "setting": "[3]", "result": 1280, "unit": "pg/mL"}, {"measurement": "IL-2 production, SEB-dependent PBMC stimulation test, 10 ug/ml, N = 2", "setting": "[3]", "result": 1490, "unit": "pg/mL"}, {"measurement": "IL-2 production, antigen-specific T lymphocyte stimulation test, 0.016 ug/ml, N = 1", "setting": "[3]", "result": 336, "unit": "pg/mL"}, {"measurement": "IL-2 production, antigen-specific T lymphocyte stimulation test, 0.016 ug/ml, N = 2", "setting": "[3]", "result": 298, "unit": "pg/mL"}, {"measurement": "IL-2 production, antigen-specific T lymphocyte stimulation test, 0.08 ug/ml, N = 1", "setting": "[3]", "result": 286, "unit": "pg/mL"}, {"measurement": "IL-2 production, antigen-specific T lymphocyte stimulation test, 0.08 ug/ml, N = 2", "setting": "[3]", "result": 282, "unit": "pg/mL"}, {"measurement": "IL-2 production, antigen-specific T lymphocyte stimulation test, 0.4 ug/ml, N = 1", "setting": "[3]", "result": 322, "unit": "pg/mL"}, {"measurement": "IL-2 production, antigen-specific T lymphocyte stimulation test, 0.4 ug/ml, N = 2", "setting": "[3]", "result": 286, "unit": "pg/mL"}, {"measurement": "IL-2 production, antigen-specific T lymphocyte stimulation test, 2 ug/ml, N = 1", "setting": "[3]", "result": 382, "unit": "pg/mL"}, {"measurement": "IL-2 production, antigen-specific T lymphocyte stimulation test, 2 ug/ml, N = 2", "setting": "[3]", "result": 317, "unit": "pg/mL"}, {"measurement": "IL-2 production, antigen-specific T lymphocyte stimulation test, 10 ug/ml, N = 1", "setting": "[3]", "result": 338, "unit": "pg/mL"}, {"measurement": "IL-2 production, antigen-specific T lymphocyte stimulation test, 10 ug/ml, N = 2", "setting": "[3]", "result": 277, "unit": "pg/mL"}, {"measurement": "Mean fluorescence intensity", "setting": "[4]", "result": 4}, {"measurement": "Mean fluorescence intensity", "setting": "[5]", "result": 3}, {"measurement": "Mean fluorescence intensity", "setting": "[6]", "result": 4}, {"measurement": "Inhibition rate (%)", "setting": "[7]", "result": 10.2, "unit": "%"}, {"measurement": "Inhibition rate (%)", "setting": "[8]", "result": -10.1, "unit": "%"}, {"measurement": "Inhibition rate (%)", "setting": "[9]", "result": 19.7, "unit": "%"}]}, {"molecule": "405B8H3 mouse-human chimeric antibody (antibody, V domains shown, also called mAb103-405B8H3) VH: QVQLQQSGAELVRPGASVTLSCKASGYTFTDYEMHWVKQTPVHGLEWIGATDPETGNSAYNQKFKGKAIMTADKSSSTAYMELRSLTSEDSAVYYCISTGWNDWGQGTSLTVSS VL: DIKMTQSPSSMYASLGERVTITCKASQDINSYLSWFQQKPGKSPKTLIYRADRLLDGVPSRFSGSGSGQDYSLTISSLEYGDMGIYYCLQYDEFPYTFGGGTKLEIK", "values": [{"measurement": "Mean fluorescence intensity", "setting": "[10]", "result": 19}]}]}
